{"source": "patent US6699869", "tested_on": "(D)FPR-PNA"}
{"substance": "bovine thrombin (from Sigma)", "values": [{"measurement": "Kcat/KM of substrate hydrolysis", "result": "thrombin: Kcat/KM=2.20×10^7 M^-1 S^-1"}]}
